Measurements reported in publication PMC11481871, “Discovery of GuaB inhibitors with efficacy against Acinetobacter baumannii infection” (mBio, 2024).

Key:
[1] = target: the molecule itself; assay: crystal structure; E. coli GuaBΔCBS (28 mg/mL) with 5 mM IMP, vapor diffusion at room temperature, 0.1 M bicine pH 9.0, 20% PEG 6000; crystals soaked with inhibitor; space group I4, one molecule in the asu
[2] = target: the molecule itself; assay: crystal structure; A. baumannii GuaBΔCBS (21 mg/mL) with 5 mM IMP, vapor diffusion at room temperature, 0.1 M HEPES pH 7.5, 20% isopropanol, 10% PEG4000; crystals soaked with inhibitor; space group P21, eight copies in the asu
[3] = target: the molecule itself; assay: crystal structure; S. aureus GuaBΔCBS (27 mg/mL) with 5 mM IMP, vapor diffusion at room temperature, 0.1 M bicine pH 9.0, 0.1 M NaCl, 30% PEG550 MME; crystals soaked with inhibitor; space group I4, one molecule in the asu

B1: E. coli GuaBΔCBS (L2-S488_ΔE90-R217) (enzyme, Escherichia coli, UniProt P0ADG7 2-488, looked up)
chain: LRIAKEALTFDDVLLVPAHSTVLPNTADLSTQLTKTIRLNIPMLSAAMDTVTEARLAIALAQEGGIGFIHKNMSIERQAEEVRRVKKHLRVGAAVGAGAGNEERVDALVAAGVDVLLIDSSHGHSEGVLQRIRETRAKYPDLQIIGGNVATAAGARALAEAGCSAVKVGIGPGSICTTRIVTGVGVPQITAVADAVEALEGTGIPVIADGGIRFSGDIAKAIAAGASAVMVGSMLAGTEESPGEIELYQGRSYKSYRGMGSLGAMSKGSSDRYFQSDNAADKLVPEGIEGRVAYKGRLKEIIHQQMGGLRSCMGLTGCGTIDELRTKAEFVRISGAGIQESHVHDVTITKESPNYRLGS
notes: GuaB (inosine-5'-monophosphate dehydrogenase) of Escherichia coli, residues L2-S488 with the CBS domains (E90-R217) deleted; Crystallised with IMP and soaked with G1, G2 or G8; one molecule in the asymmetric unit, the tetramer arises from the fourfold axis of space group I4; also called E.c; GuaB; source: E. coli BL21 (DE3) Gold, purified (HisTrap FF, Superdex200 size-exclusion; same protocol as …)
For B1, the “stoichiometry N” value [1] was 4.

B2: A. baumannii GuaB with CBS domain deletion (M1-G488_ΔM93-R201) (enzyme)
chain: MLTIVQEALTFDDVLLLPAYSTVLPKDVSLKTRLTRGIYLNIPLVSAAMDTVTESRMAIAMAQNGGIGILHKNMDIAAQAAEVRRVKKFEAGKAESYPNSCKDDLGRLRVGAAVGTGADTPSRVEALVEAGVDVIVVDTAHGHSAGVIERVRWVKQNFPQVQVIGGNIATGDAALALLDAGADAVKVGIGPGSICTTRIVAGIGMPQISAIDSVASALKDQIPLIADGGIRFSGDMAKAIGAGASTIMVGSLLAGTEEAPGEVEFFQGRYYKAYRGMGSLGAMAGATGSADRYFQDSKAGAEKLVPEGIEGRVPYKGPMGNIVHQMMGGLRSSMGYTGSAVIEDLRQNAKFVKITSAGMSESHVHDVTITKEAPNYRVG
notes: cloned into a modified pET52b vector; Eight copies in the asymmetric unit (octamer of two tetramers); also called A. baumannii GuaBΔCBS; GuaBΔCBS; source: E. coli BL21 (DE3) Gold, purified (HisTrap FF, Superdex200 size-exclusion)
B2 was tested, and the “stoichiometry N” value [2] was 8.

B3: S. aureus GuaBΔCBS (W2-F488_ΔE92-R219) (enzyme)
chain: WESKFAKESLTFDDVLLIPAQSDILPKDVDLSVQLSDKVKLNIPVISAGMDTVTESKMAIAMARQGGLGVIHKNMGVEEQADEVQKVKRSLLVAAAIGISKDTDIRAQKLVEAGVDVLVIDTAHGHSKGVIDQVKHIKKTYPEITLVAGNVATAEATKDLFEAGADIVKVGIGPGSICTTRVVAGVGVPQITAIYDCATEARKHGKAIIADGGIKFSGDIIKALAAGGHAVMLGSLLAGTEESPGATEIFQGRQYKVYRGMGSLGAMEKGSNDRYFQEDKAPKKFVPEGIEGRTAYKGALQDTIYQLMGGVRAGMGYTGSHDLRELREEAQFTRMGPAGLAESHPHNIQITKESPNYSF
notes: Crystallised with IMP and soaked with G1, G2 or G8; one molecule in the asymmetric unit, the tetramer arises from the fourfold axis of space group I4; also called S.a; GuaB; source: E. coli BL21 (DE3) Gold, purified (HisTrap FF, Superdex200 size-exclusion; same protocol as A. baumannii GuaBΔCBS)
In the case of B3, the “stoichiometry N” value [3] is reported as 4.
